Here are results for 2 molecules from article PMC7984218.

In one data set the target is T1, Dna2405N (UniProt P38859).
T1 sequence: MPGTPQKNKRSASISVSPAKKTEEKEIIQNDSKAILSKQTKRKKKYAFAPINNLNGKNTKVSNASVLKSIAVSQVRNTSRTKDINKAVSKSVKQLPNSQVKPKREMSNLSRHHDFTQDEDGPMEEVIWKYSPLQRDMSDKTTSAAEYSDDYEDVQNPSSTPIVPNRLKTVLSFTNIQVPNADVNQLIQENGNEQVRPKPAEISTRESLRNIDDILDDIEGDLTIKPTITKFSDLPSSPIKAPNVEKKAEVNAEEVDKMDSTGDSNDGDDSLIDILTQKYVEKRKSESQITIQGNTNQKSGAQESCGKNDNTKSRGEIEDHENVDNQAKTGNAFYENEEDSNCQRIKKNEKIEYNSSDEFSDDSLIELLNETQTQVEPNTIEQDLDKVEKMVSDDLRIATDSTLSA
The data set is described as follows: competition.

The next data set concerns the target T2, GST-Dna2405N-5A-His6 (UniProt P38859 1-405, K41A;R42A;K43A;K44A;K45A).
T2 sequence: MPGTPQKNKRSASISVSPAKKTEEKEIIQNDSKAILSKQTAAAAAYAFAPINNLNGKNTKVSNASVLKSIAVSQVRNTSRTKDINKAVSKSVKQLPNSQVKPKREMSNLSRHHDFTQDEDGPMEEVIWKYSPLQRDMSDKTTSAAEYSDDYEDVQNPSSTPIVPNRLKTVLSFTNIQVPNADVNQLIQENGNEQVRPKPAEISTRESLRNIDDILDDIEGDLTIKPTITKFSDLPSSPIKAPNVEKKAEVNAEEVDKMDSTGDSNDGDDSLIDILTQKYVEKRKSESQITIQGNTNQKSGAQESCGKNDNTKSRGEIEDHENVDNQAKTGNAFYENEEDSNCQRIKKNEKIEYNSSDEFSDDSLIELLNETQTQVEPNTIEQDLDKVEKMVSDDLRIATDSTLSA
The data set is described as follows: EMSA.

M13mp18 viral DNA (sscDNA) showed a binding signal (% inhibition of Hairpin binding) in the data set with Dna2405N of over 80.

B1: Hairpin (standard 5' hairpin flap; oligos 1, 2, 5) (structured_DNA)
DNA 1: GAAAACATTATTAATGGCGTCGAGCTAGGCACAAGGCGAACTGCTAACGG
DNA 2: CCGTTAGCAGTTCGCCTTGTGCCTA
DNA 3: GCGCATGTGCGTTCCGTCCGGTTCAAGCCGCAGCGGCTTGAACCGGACGCTCGACGCCATTAATAATGTTTTC
Consider B1, for which, in the data set with GST-Dna2405N-5A-His6, the binding result is given as “no binding”.
